{"source": "paper PMC10786891", "about": "“Massively parallel profiling of RNA-targeting CRISPR-Cas13d”", "binders": {"B1": {"name": "target 1 MT 5'PFS CAA 3'PFS AUA (mixed)", "RNA 1": "CACCCGUGCAAAAAUGCAGGGGUCUAAAACUGAGCGGAUAACCUCUCUAUGG", "RNA 2": "GGGAAUGGAUCCACAUCUACGAAUUCCAACCAUAGAGAGGUUAUCCGCUCAAUAAGAUCGGAAGAGCACACGU"}, "B2": {"name": "target 1 MT 5'PFS CAA 3'PFS AUC (mixed)", "RNA 1": "CACCCGUGCAAAAAUGCAGGGGUCUAAAACUGAGCGGAUAACCUCUCUAUGG", "RNA 2": "GGGAAUGGAUCCACAUCUACGAAUUCCAACCAUAGAGAGGUUAUCCGCUCAAUCAGAUCGGAAGAGCACACGU"}, "B3": {"name": "target 1 MT 5'PFS GAC 3'PFS UCU (mixed)", "RNA 1": "CACCCGUGCAAAAAUGCAGGGGUCUAAAACUGAGCGGAUAACCUCUCUAUGG", "RNA 2": "GGGAAUGGAUCCACAUCUACGAAUUCGACCCAUAGAGAGGUUAUCCGCUCAUCUAGAUCGGAAGAGCACACGU"}, "B4": {"name": "target 1 MT 5'PFS UAA 3'PFS ACA (mixed)", "RNA 1": "CACCCGUGCAAAAAUGCAGGGGUCUAAAACUGAGCGGAUAACCUCUCUAUGG", "RNA 2": "GGGAAUGGAUCCACAUCUACGAAUUCUAACCAUAGAGAGGUUAUCCGCUCAACAAGAUCGGAAGAGCACACGU"}, "B5": {"name": "target 1 MT 5'PFS UAA 3'PFS ACG (mixed)", "RNA 1": "CACCCGUGCAAAAAUGCAGGGGUCUAAAACUGAGCGGAUAACCUCUCUAUGG", "RNA 2": "GGGAAUGGAUCCACAUCUACGAAUUCUAACCAUAGAGAGGUUAUCCGCUCAACGAGAUCGGAAGAGCACACGU"}, "B6": {"name": "target 1 MT 5'PFS GAC 3'PFS UCG (mixed)", "RNA 1": "CACCCGUGCAAAAAUGCAGGGGUCUAAAACUGAGCGGAUAACCUCUCUAUGG", "RNA 2": "GGGAAUGGAUCCACAUCUACGAAUUCGACCCAUAGAGAGGUUAUCCGCUCAUCGAGAUCGGAAGAGCACACGU"}, "B7": {"name": "target 1 MT 5'PFS GAC 3'PFS UCC (mixed)", "RNA 1": "CACCCGUGCAAAAAUGCAGGGGUCUAAAACUGAGCGGAUAACCUCUCUAUGG", "RNA 2": "GGGAAUGGAUCCACAUCUACGAAUUCGACCCAUAGAGAGGUUAUCCGCUCAUCCAGAUCGGAAGAGCACACGU"}, "B8": {"name": "target 1 MT 5'PFS GAC 3'PFS UCA (mixed)", "RNA 1": "CACCCGUGCAAAAAUGCAGGGGUCUAAAACUGAGCGGAUAACCUCUCUAUGG", "RNA 2": "GGGAAUGGAUCCACAUCUACGAAUUCGACCCAUAGAGAGGUUAUCCGCUCAUCAAGAUCGGAAGAGCACACGU"}, "B9": {"name": "target 1 MT 5'PFS UAA 3'PFS ACU (mixed)", "RNA 1": "CACCCGUGCAAAAAUGCAGGGGUCUAAAACUGAGCGGAUAACCUCUCUAUGG", "RNA 2": "GGGAAUGGAUCCACAUCUACGAAUUCUAACCAUAGAGAGGUUAUCCGCUCAACUAGAUCGGAAGAGCACACGU"}, "B10": {"name": "target 1 insA 3' of 4,insU 3' of 4 (mixed)", "RNA 1": "CACCCGUGCAAAAAUGCAGGGGUCUAAAACUGAGCGGAUAACCUCUCUAUGG", "RNA 2": "GGGAAUGGAUCCACAUCUACGAAUUCGUACCAUAGAGAGGUUAUCCGCAUUCACCGAGAUCGGAAGAGCACACGU"}, "B11": {"name": "target 1 MT 5'PFS UUA 3'PFS AGU (mixed)", "RNA 1": "CACCCGUGCAAAAAUGCAGGGGUCUAAAACUGAGCGGAUAACCUCUCUAUGG", "RNA 2": "GGGAAUGGAUCCACAUCUACGAAUUCUUACCAUAGAGAGGUUAUCCGCUCAAGUAGAUCGGAAGAGCACACGU"}, "B12": {"name": "target 1 MT 5'PFS CCG 3'PFS UAU (mixed)", "RNA 1": "CACCCGUGCAAAAAUGCAGGGGUCUAAAACUGAGCGGAUAACCUCUCUAUGG", "RNA 2": "GGGAAUGGAUCCACAUCUACGAAUUCCCGCCAUAGAGAGGUUAUCCGCUCAUAUAGAUCGGAAGAGCACACGU"}, "B13": {"name": "target 1 MT 5'PFS CCG 3'PFS UAG (mixed)", "RNA 1": "CACCCGUGCAAAAAUGCAGGGGUCUAAAACUGAGCGGAUAACCUCUCUAUGG", "RNA 2": "GGGAAUGGAUCCACAUCUACGAAUUCCCGCCAUAGAGAGGUUAUCCGCUCAUAGAGAUCGGAAGAGCACACGU"}, "B14": {"name": "target 1 MT 5'PFS CCG 3'PFS UAC (mixed)", "RNA 1": "CACCCGUGCAAAAAUGCAGGGGUCUAAAACUGAGCGGAUAACCUCUCUAUGG", "RNA 2": "GGGAAUGGAUCCACAUCUACGAAUUCCCGCCAUAGAGAGGUUAUCCGCUCAUACAGAUCGGAAGAGCACACGU"}, "B15": {"name": "target 1 MT 5'PFS CCG 3'PFS UAA (mixed)", "RNA 1": "CACCCGUGCAAAAAUGCAGGGGUCUAAAACUGAGCGGAUAACCUCUCUAUGG", "RNA 2": "GGGAAUGGAUCCACAUCUACGAAUUCCCGCCAUAGAGAGGUUAUCCGCUCAUAAAGAUCGGAAGAGCACACGU"}, "B16": {"name": "target 1 MT 5'PFS GUC 3'PFS AAG (mixed)", "RNA 1": "CACCCGUGCAAAAAUGCAGGGGUCUAAAACUGAGCGGAUAACCUCUCUAUGG", "RNA 2": "GGGAAUGGAUCCACAUCUACGAAUUCGUCCCAUAGAGAGGUUAUCCGCUCAAAGAGAUCGGAAGAGCACACGU"}, "B17": {"name": "target 1 MT 5'PFS GUC 3'PFS AAA (mixed)", "RNA 1": "CACCCGUGCAAAAAUGCAGGGGUCUAAAACUGAGCGGAUAACCUCUCUAUGG", "RNA 2": "GGGAAUGGAUCCACAUCUACGAAUUCGUCCCAUAGAGAGGUUAUCCGCUCAAAAAGAUCGGAAGAGCACACGU"}, "B18": {"name": "target 1 MT 5'PFS GUC 3'PFS UCU (mixed)", "RNA 1": "CACCCGUGCAAAAAUGCAGGGGUCUAAAACUGAGCGGAUAACCUCUCUAUGG", "RNA 2": "GGGAAUGGAUCCACAUCUACGAAUUCGUCCCAUAGAGAGGUUAUCCGCUCAUCUAGAUCGGAAGAGCACACGU"}, "B19": {"name": "target 1 MT 5'PFS CUC 3'PFS UAA (mixed)", "RNA 1": "CACCCGUGCAAAAAUGCAGGGGUCUAAAACUGAGCGGAUAACCUCUCUAUGG", "RNA 2": "GGGAAUGGAUCCACAUCUACGAAUUCCUCCCAUAGAGAGGUUAUCCGCUCAUAAAGAUCGGAAGAGCACACGU"}, "B20": {"name": "target 1 MT 5'PFS GUC 3'PFS UCC (mixed)", "RNA 1": "CACCCGUGCAAAAAUGCAGGGGUCUAAAACUGAGCGGAUAACCUCUCUAUGG", "RNA 2": "GGGAAUGGAUCCACAUCUACGAAUUCGUCCCAUAGAGAGGUUAUCCGCUCAUCCAGAUCGGAAGAGCACACGU"}, "B21": {"name": "target 1 G15A,C21U (mixed)", "RNA 1": "CACCCGUGCAAAAAUGCAGGGGUCUAAAACUGAGCGGAUAACCUCUCUAUGG", "RNA 2": "GGGAAUGGAUCCACAUCUACGAAUUCGUACUAUAGAAAGGUUAUCCGCUCACCGAGAUCGGAAGAGCACACGU"}, "B22": {"name": "target 1 C2G,G17A (mixed)", "RNA 1": "CACCCGUGCAAAAAUGCAGGGGUCUAAAACUGAGCGGAUAACCUCUCUAUGG", "RNA 2": "GGGAAUGGAUCCACAUCUACGAAUUCGUACCAUAAAGAGGUUAUCCGCUGACCGAGAUCGGAAGAGCACACGU"}, "B23": {"name": "target 1 MT 5'PFS GUC 3'PFS UCA (mixed)", "RNA 1": "CACCCGUGCAAAAAUGCAGGGGUCUAAAACUGAGCGGAUAACCUCUCUAUGG", "RNA 2": "GGGAAUGGAUCCACAUCUACGAAUUCGUCCCAUAGAGAGGUUAUCCGCUCAUCAAGAUCGGAAGAGCACACGU"}, "B24": {"name": "target 1 MT 5'PFS GUC 3'PFS UCG (mixed)", "RNA 1": "CACCCGUGCAAAAAUGCAGGGGUCUAAAACUGAGCGGAUAACCUCUCUAUGG", "RNA 2": "GGGAAUGGAUCCACAUCUACGAAUUCGUCCCAUAGAGAGGUUAUCCGCUCAUCGAGAUCGGAAGAGCACACGU"}}}
{"target": "T1, EsCas13d, nuclease-dead (Eubacterium siraeum, UniProt B0MS50, R295A;H300A;R849A;H854A)", "T1 sequence": "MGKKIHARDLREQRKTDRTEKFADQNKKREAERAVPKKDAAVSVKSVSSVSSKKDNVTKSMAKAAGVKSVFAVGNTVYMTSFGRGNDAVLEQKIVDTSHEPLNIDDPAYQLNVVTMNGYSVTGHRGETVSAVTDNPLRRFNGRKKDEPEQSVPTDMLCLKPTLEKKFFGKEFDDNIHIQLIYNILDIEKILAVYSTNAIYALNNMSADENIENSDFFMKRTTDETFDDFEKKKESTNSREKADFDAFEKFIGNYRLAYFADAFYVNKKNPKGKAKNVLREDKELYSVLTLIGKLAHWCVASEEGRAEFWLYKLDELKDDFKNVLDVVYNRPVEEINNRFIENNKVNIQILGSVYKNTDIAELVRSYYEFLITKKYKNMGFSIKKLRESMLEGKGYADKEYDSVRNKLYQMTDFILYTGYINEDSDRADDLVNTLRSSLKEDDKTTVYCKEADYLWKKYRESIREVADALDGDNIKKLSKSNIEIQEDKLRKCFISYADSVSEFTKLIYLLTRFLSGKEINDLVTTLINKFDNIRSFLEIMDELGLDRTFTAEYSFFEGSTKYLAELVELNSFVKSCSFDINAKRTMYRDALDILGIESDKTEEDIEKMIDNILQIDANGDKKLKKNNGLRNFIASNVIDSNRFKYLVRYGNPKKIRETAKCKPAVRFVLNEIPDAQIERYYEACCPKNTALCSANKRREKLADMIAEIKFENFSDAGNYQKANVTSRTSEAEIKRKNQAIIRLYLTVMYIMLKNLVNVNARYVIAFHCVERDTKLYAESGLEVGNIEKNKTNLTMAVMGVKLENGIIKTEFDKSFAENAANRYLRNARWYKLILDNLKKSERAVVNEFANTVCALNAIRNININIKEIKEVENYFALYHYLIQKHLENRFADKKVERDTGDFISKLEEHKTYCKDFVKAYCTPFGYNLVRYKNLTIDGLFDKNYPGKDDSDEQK", "test": "crRNA (strand 1, pre-loaded); Mg2+; 40 mM Tris-HCl pH 7.5, 150 mM NaCl, 6 mM MgCl2, 1 mM DTT, 0.1% Tween-20, 0.2 mg/ml BSA; 25 C; 10 min per concentration, then washed", "details": "tags: His6-TwinStrep-SUMO cleaved; N-terminal SNAP kept (SNAP-Surface 488); label: 3' end held by stalled T7 RNA polymerase", "units": {"Kd": "nM"}}
{"binder": "B1", "Kd": "17.5 ± 7.5"}
{"binder": "B2", "Kd": "~32.5"}
{"binder": "B3", "Kd": "12.8 ± 4.8"}
{"binder": "B4", "Kd": "43.5 ± 17.5"}
{"binder": "B5", "Kd": "25 ± 4.5"}
{"binder": "B6", "Kd": "13.2 ± 1.9"}
{"binder": "B7", "Kd": "23 ± 9.3"}
{"binder": "B8", "Kd": "16.6 ± 3.5"}
{"binder": "B9", "Kd": "29 ± 7"}
{"binder": "B10", "Kd": "12.4 ± 1.6"}
{"binder": "B11", "Kd": "74.5 ± 29"}
{"binder": "B12", "Kd": "3.2 ± 1"}
{"binder": "B13", "Kd": "3.35 ± 0.595"}
{"binder": "B14", "Kd": "~2.85"}
{"binder": "B15", "Kd": "14.2 ± 4.6"}
{"binder": "B16", "Kd": "20.5 ± 5.5"}
{"binder": "B17", "Kd": "38 ± 8"}
{"binder": "B18", "Kd": "16.1 ± 3.15"}
{"binder": "B19", "Kd": "59 ± 25"}
{"binder": "B20", "Kd": "11.2 ± 3.1"}
{"binder": "B21", "Kd": "6.9 ± 0.4"}
{"binder": "B22", "Kd": "25 ± 1.9"}
{"binder": "B23", "Kd": "18.5 ± 5.5"}
{"binder": "B24", "Kd": "14.4 ± 2.7"}
